Assay results reported in US20100211325A1.
Numbering of substitutions follows the chain as printed. In names and notes the source's numbering stands.

Legend:
[1] = molecular target: Laminin 511/521 (LM511/521) (UniProt O15230); test: not given
[2] = molecular target: Laminin 511/521 (LM511/521) (UniProt O15230); test: SPR (Biacore) of FIG. 6e, 100 µl injection of 10 nM LM511/521 at 30 µl/min
[3] = molecular target: Laminin 511/521 (LM511/521) (UniProt O15230); test: ELISA of FIG. 6d, 0.05 nM Lu protein, LM511/521 added, anti-laminin detection
[4] = molecular target: Laminin 511/521 (LM511/521) (UniProt O15230); test: ELISA, 0.05 nM Lu gpFc captured by anti-human Fc, 5 nM LM511/521, anti-laminin detection
[5] = molecular target: Laminin 511/521 (LM511/521) (UniProt O15230); test: electron tomography (Protein Tomography) of an equimolar mixture of Lu gpFc and LM511/521
[6] = molecular target: Laminin 511/521 (LM511/521) (UniProt O15230); test: ELISA of FIG. 3c, 0.05 nM Lu gpFc captured by anti-Fc, LM511/521 added, anti-laminin detection
[7] = molecular target: Laminin 511/521 (LM511/521) (UniProt O15230); test: SPR (Biacore X), Lu gpFc captured on protein A chip (40 RU), 100 µl injection of 10 nM LM511/521, total change in RU
[8] = molecular target: Laminin 511/521 (LM511/521) (UniProt O15230); test: cell-based or functional assay
[9] = molecular target: Laminin 511/521 (LM511/521) (UniProt O15230); test: ELISA, Lu protein captured, 5 nM LM511/521, against native Lu gp or D1+2+3+4
[10] = molecular target: Laminin 511/521 (LM511/521) (UniProt O15230); test: SPR (Biacore), Lu protein captured, 10 nM LM511/521, against native Lu gp or D1+2+3+4

B1: Native Lu gpFc fusion protein (five extracellular domains of human Lutheran glycoprotein fused to Fc) (Fc fusion, not shown: a dimerising Fc or GST)
chain: EVRLSVPPLVEVMRGKSVILDCTPTGTHDHYMLEWFLTDRSGARPRLASAEMQGSELQVTMHDTRGRSPPYQLDSQGRLVLAEAQVGDERDYVCVVRAGAAGTAEATARLNVFAKPEATEVSPNKGTLSVMEDSAQEIATCNSRNGNPAPKITWYRNGQRLEVPVEMNPEGYMTSRTVREASGLLSLTSTLYLRLRKDDRDASFHCAAHYSLPEGRHGRLDSPTFHLTLHYPTEHVQFWVGSPSTPAGWVREGDTVQLLCRGDGSPSPEYTLFRLQDEQEEVLNVNLEGNLTLEGVTRGQSGTYGCRVEDYDAADDVQLSKTLELRVAYLDPLELSEGKVLSLPLNSSAVVNCSVHGLPTPALRWTKDSTPLGDGPMLSLSSITFDSNGTYVCEASLPTVPVLSRTQNFTLLVQGSPELKTAEIEPKADGSWREGDEVTLICSARGHPDPKLSWSQLGGSPAEPIPGRQGWVSSSLTLKVTSALSRDGISCEASNPHGNKRHVFHFGTVSPQTSQA
[1]
  Kd: 7.9 nM
  koff: 0.0126 s⁻¹
  kon: 1.6e+06 M⁻¹ s⁻¹
[2]
  total change in RU: 129 RU
[3]
  OD450: 0.99 OD450
[4]
  ELISA % of native Lu gpFc: 100%
[5]
  % of LM511/521 molecules bound to Lu gpFc: 50 to 60%
[6]
  OD450: 0.95 OD450
[7]
  Biacore Δ RUs: 115 RU

B2: Lu gpFc E180A (Fc fusion, not shown: a dimerising Fc or GST)
chain: B1 chain with E180A
[4]
  ELISA % of native Lu gpFc: 104%
[7]
  Biacore Δ RUs: 78.3 RU

B3: Lu gpFc E132A/D133A (Fc fusion, not shown: a dimerising Fc or GST)
chain: B1 chain with E132A, D133A
[4]
  ELISA % of native Lu gpFc: 69.4%
[7]
  Biacore Δ RUs: 57.3 RU

B4: Human Lutheran glycoprotein on cells (K562 transfectant expressing Lu gp; late stage erythroblasts) (receptor)
chain: EVRLSVPPLVEVMRGKSVILDCTPTGTHDHYMLEWFLTDRSGARPRLASAEMQGSELQVTMHDTRGRSPPYQLDSQGRLVLAEAQVGDERDYVCVVRAGAAGTAEATARLNVFAKPEATEVSPNKGTLSVMEDSAQEIATCNSRNGNPAPKITWYRNGQRLEVPVEMNPEGYMTSRTVREASGLLSLTSTLYLRLRKDDRDASFHCAAHYSLPEGRHGRLDSPTFHLTLHYPTEHVQFWVGSPSTPAGWVREGDTVQLLCRGDGSPSPEYTLFRLQDEQEEVLNVNLEGNLTLEGVTRGQSGTYGCRVEDYDAADDVQLSKTLELRVAYLDPLELSEGKVLSLPLNSSAVVNCSVHGLPTPALRWTKDSTPLGDGPMLSLSSITFDSNGTYVCEASLPTVPVLSRTQNFTLLVQGSPELKTAEIEPKADGSWREGDEVTLICSARGHPDPKLSWSQLGGSPAEPIPGRQGWVSSSLTLKVTSALSRDGISCEASNPHGNKRHVFHFGTVSPQTSQAGVAVMAVAVSVGLLLLVVAVFYCVRRKGGPCCRQRREKGAPPPGEPGLSHSGSEQPEQTGLLMGGASGGARGGSGGFGDEC
[8]
  cell adhesion assay: % of cells bound to coated laminin: 70 to 85%

B5: Lu gpFc domain deletion protein D1+2+3b (domains 1, 2 and 3, ending L354EL-…-Fc) (Fc fusion, not shown: a dimerising Fc or GST)
chain: EVRLSVPPLVEVMRGKSVILDCTPTGTHDHYMLEWFLTDRSGARPRLASAEMQGSELQVTMHDTRGRSPPYQLDSQGRLVLAEAQVGDERDYVCVVRAGAAGTAEATARLNVFAKPEATEVSPNKGTLSVMEDSAQEIATCNSRNGNPAPKITWYRNGQRLEVPVEMNPEGYMTSRTVREASGLLSLTSTLYLRLRKDDRDASFHCAAHYSLPEGRHGRLDSPTFHLTLHYPTEHVQFWVGSPSTPAGWVREGDTVQLLCRGDGSPSPEYTLFRLQDEQEEVLNVNLEGNLTLEGVTRGQSGTYGCRVEDYDAADDVQLSKTLELRVAYLNSPQTSQA
[9]
  % of the binding of native Lu gp (ELISA): 68%
[10]
  % of the binding of native Lu gp (Biacore): 42%
